Laboratory results: paper PMC3017548

Key:
Test in all cases: filter binding
[1] = system: Gadd45a G39A (Xenopus tropicalis); conditions: loss of discrimination between vector and total RNA in competition; 10 mM Tris-HCl pH 7.4, 10 mM KCl, 1 mM MgCl2; 2.5 or 1.3 uM protein, ~2 ng 32P-MCS RNA, 20 min; temperature not given; nitrocellulose filter
[2] = system: Gadd45a K45A (Xenopus tropicalis); conditions: loss of discrimination between vector and total RNA in competition; 10 mM Tris-HCl pH 7.4, 10 mM KCl, 1 mM MgCl2; 2.5 or 1.3 uM protein, ~2 ng 32P-MCS RNA, 20 min; temperature not given; nitrocellulose filter
[3] = system: Gadd45a R34G (Xenopus tropicalis); conditions: 10 mM Tris-HCl pH 7.4, 10 mM KCl, 1 mM MgCl2; 2.5 or 1.3 uM protein, ~2 ng 32P-MCS RNA, 20 min; temperature not given; nitrocellulose filter
[4] = system: Gadd45a V49R (Xenopus tropicalis); conditions: 10 mM Tris-HCl pH 7.4, 10 mM KCl, 1 mM MgCl2; 2.5 or 1.3 uM protein, ~2 ng 32P-MCS RNA, 20 min; temperature not given; nitrocellulose filter

“MCS RNA (multiple cloning site transcript)” showed a binding signal (fold of wild type binding (comparable)) [1] of 1, a binding signal (fold of wild type binding (comparable)) [2] of 1 and a binding signal (fold of wild type binding (comparable)) [3] of 1. For the same substance, the binding signal (fold of wild type binding) [4] was 3.
